Values quoted from earlier work, collected in patent US20230002502A1, “METHODS AND PRODUCTS FOR REDUCING SIDE EFFECTS ASSOCIATED WITH USE OF IMMUNE AGONIST ANTIBODIES” (South Australian Health and Medical Research Institute …, priority 2019, published 2023).
Entries after “also recorded” stand apart in the source; their conditions may differ. Where two headings read alike, the source gives them in different places.

Tested on: patients
Conditions: for toxicity reported in clinical trials: patients

For urelumab: an anti-CD137 IAA, IgG4, the “clinical trial results at lower dose” value (8 mg/patient, alone or in combination with anti-PD1) is given as “overall disappointing results”, the “toxicity reported in clinical trials” value is given as “severe dose-dependent liver toxicity; also recorded: high rates of dose dependent liver toxicity, resulting in several deaths” and the “toxicity reported in clinical trials” value (listed as Urelumab) is given as “severe (grade 3 and above) liver damage”.
